Reference: US5565354 (Sandoz Ltd., dated 1996)

Tests used:
[1] = target: hepatitis B surface antigen (HBsAg), preparation and subtype not stated (hepatitis B virus); experiment: AUSAB radioimmunoassay (Abbott), compared on a weight basis
[2] = target: HBsAg of control HBsAg-positive serum (hepatitis B virus); experiment: sandwich RIA, PE1-1 solid-adsorbed and ZM1-2 125I-labelled; the control itself
[3] = target: serum-derived variant HBsAg of Patient #2 (hepatitis B virus); experiment: sandwich RIA, PE1-1 solid-adsorbed and ZM1-2 125I-labelled, patient serum HBsAg
[4] = target: serum-derived variant HBsAg, sample 'Patient #3 (264)' (hepatitis B virus); experiment: as above
[5] = target: serum-derived variant HBsAg, sample 'Patient #4 (251)' (hepatitis B virus); experiment: as above
HBsAg subtype ayw [6] = target: T1, HBsAg subtype ayw (hepatitis B virus, UniProt P03138); experiment: solid phase RIA, 125I-labelled antibody on solid adsorbed HBsAg ayw, room temperature
HBsAg subtype ayw [7] = target: T1, HBsAg subtype ayw; experiment: inhibition ELISA, soluble HBsAg ayw pre-incubated with antibody, HBsAg-coated well, 37 C
[8] = target: HBsAg in serum from a hepatitis B positive patient (hepatitis B virus)
[9] = target: HBsAg of control HBsAg-positive serum (hepatitis B virus); experiment: sandwich RIA, solid-adsorbed and 125I-labelled ZM1-2; the control itself
[10] = target: serum-derived variant HBsAg of Patient #2 (hepatitis B virus); experiment: sandwich RIA, solid-adsorbed and 125I-labelled ZM1-2, patient serum HBsAg
[11] = target: serum-derived variant HBsAg, sample 'Patient #3 (264)' (hepatitis B virus); experiment: as above
[12] = target: serum-derived variant HBsAg, sample 'Patient #4 (251)' (hepatitis B virus); experiment: as above

Binder | potency relative to the Bureau of Biologics reference hepatitis B immune globin [1] | potency relative to the commercial hepatitis B immune globulin preparations [1] | relative reactivity (relative to control) [2] | relative reactivity (relative to control) [3] | relative reactivity (relative to control) [4] | relative reactivity (relative to control) [5] | Ka (HBsAg subtype ayw [6]) | Ka (HBsAg subtype ayw [7]) | IC50 [8] | relative reactivity (relative to control) [9] | relative reactivity (relative to control) [10] | relative reactivity (relative to control) [11] | relative reactivity (relative to control) [12]
human monoclonal antibody PE1-1 (antibody, V domains shown) VH: QVQLVESGGGVVQPGRSLRLSCAASGFTFSRYGMHWVRQAPGKGLEWVAVISYDGSNKWYADSVKGRFTISRDNSKNTLFLQMHSLRAADTGVYYCAKDQLYFGSQSPGHYWVQGTLVTVSS VL: QSQLTQPPSVSVAPGQTARITCGGDNIGSKSVNWFQQKPGQAPVLVVYDDNERPSGISERFSGSNSGNTATLTISRVEAGDEADYYCQVWDSSSDHVVFGGGTKLTVL | 435 times | > 200 times | 1 | 0.07 | 0.173 | 0.024 | 3.6e+09 M⁻¹ | ~2e+09 M⁻¹ |  |  |  |  | 
human monoclonal antibody ZM1-2 (antibody, V domains shown) VH: QVQLQESGPGLVKAAETLSLTCTVSRGSFSDYFWNWFRQPAGKRLEWLGRVYTSGSVDYNPSLKSRVTVSVDTSKKQFSLRLSSVTVADTAVYYCARGLSGFDYWGQGALVTVSP VL: DIQMTQSPSSVSASVGDRVTVTCRASQGISSWLAWYQQKPGKAPKLLIHAASSLQSGVPSRFIGSGSGTDFTLTITSLQAEDFATYYCQQADSLPFTFGGGTKVDFKR |  |  |  |  |  |  | 1.5e+09 M⁻¹ | ~7e+08 M⁻¹ | 0.076 µg/mL | 1 | 0.233 | 0.179 | 0.01
human monoclonal antibody ZM1-1 (antibody, V domains shown) VH: EVQLVESGGGLVQPGGSLRLSCAASGFTFSRYDMYWVRQATGKGLEWVSAIGPTGDTYYADSVKGRFTISRENAKNSLYLTMNGLRAGDTAVYYCARDLELWGQGTLVTVSS VL: DVVVTQSPLSLPVTLGQPASISCRSSLSLVDSDGNTYLNWFLQRPGQSPRRLIYQLSSRDSGVPDRFSGSGSGTDFTLKISRVEAEDVGVYYCMQGTHWPITFGQGTRLEIKR |  |  |  |  |  |  | 5e+09 M⁻¹ | ~1e+08 M⁻¹ |  |  |  |  | 
